# From the supplement of paper PMC11780869
# System: Bacillus subtilis
# Test: cleaved RNA product abundance (RNA/gDNA barcode ratio) relative to median wild-type variant (ratio to wild type); higher = more accumulation of the downstream cleavage product
# Conditions: cleavage site: cggR-gapA (positions -7 to +36 mutated)
# How it was run: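 Truncated aprE or tetM reporter mRNAs with barcoded RNase Y cleavage-site windows, mutagenized from oligos at a 9% error rate, sat in the B. subtilis chromosome. Cells grew in LB at 37°C from OD600 0.0003 to 0.3. Gel-selected cleaved RNA was reverse transcribed and its barcodes sequenced with those from genomic DNA, collapsing by UMI. Cleaved product abundance equals the RNA:gDNA barcode ratio per construct over the median construct with the unmutated site.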
# [1] = experiment (reporter, strain, medium): exp 2b: truncated aprE reporter, strain BJT200
# [2] = experiment (reporter, strain, medium): exp 4a: truncated aprE reporter, strain BJT201 with 2% xylose (RNase J1 expressed)
# [3] = experiment (reporter, strain, medium): exp 6: tetM reporter, strain 168
Sequence,cleaved RNA product abundance [1],cleaved RNA product abundance [2],cleaved RNA product abundance [3]
ACAGACGAAGGAGCCGCAAAGACGTTATTAAGGGATTAATAATCCCTCAATATAAATATCTCTCACTTATTTAAA,0.747,0.857,–
ACAGACGAAGGAGCCGCAAAGACGTTATTAAGGTATGAATAATCCCTCAATATAAATATCTCTCACTTATTTAAA,0.0832,0.153,–
ACAGACGAAGGAGCCGCAAAGACGTTATTAATGGATGAATAATCCCTCAATATAAATATCTCTCACTTATTTAAA,0.115,0.115,–
ACAGACGAAGGAGCCGCAAAGACGTTATTAATGGATGAATAATCCTTCAATATAAATATCTCTCACTTATTTAAA,–,0.23,–
ACAGACGAAGGAGCCGCAAAGACGTTATTATGGGATGAATAATCCCTCAATATAAATATCTCTCACTTATTTAAA,–,0.284,–
ACAGACGAAGGAGCCGCAAAGACGTTCTTAAGGGATGAATAATCCCTCAATATAAATATCTCTCACTTATTTAAA,–,0.231,–
ACAGACGAAGGAGCCGCAAAGACGTTTTTAAGGGATGAATAATCCCTCAATATAAATATCTCTCACTTATTTAAA,–,0.44,–
ACAGACGAAGGAGCCGCAAAGACTTTATTAAGGGATGAATAATCCCTCAATATAAATATCTCTCACTTATTTAAA,–,0.8,–
ACAGACGAAGGAGCCGCAAAGAGCTTATTAAGGGATGAATAATCCCTCAATATAAATATCTCTCACTTATTTAAA,–,0.743,–
ACAGACGAAGGAGCCGCAAAGAGGTAATTAAGGGATGAATAATCCCTCAATATAAATATCTCTCACTTATTTAAA,–,0.176,–
ACAGACGAAGGAGCCGCAAAGAGGTTAATAAGGGATGAATAATCCCTCAATATAAATATCTCTCACTTATTTAAA,–,0.363,–
ACAGACGAAGGAGCCGCAAAGAGGTTATTAAAGGATGAATAATCCCTCAATATAAATATCTCTCACTTATTTAAA,0.166,–,–
ACAGACGAAGGAGCCGCAAAGAGGTTATTAAGAGATGAATAATCCCTCAATATAAATATCTCTCACTTATTTAAA,–,0.126,–
ACAGACGAAGGAGCCGCAAAGAGGTTATTAAGCGATGAATAATCCCTCAATATAAATATCTCTCACTTATTTAAA,–,0.0624,–
ACAGACGAAGGAGCCGCAAAGAGGTTATTAAGGCATGAATAATCCCTCAATATAAATATCTCTCACTTATTTAAA,0.0794,–,–
ACAGACGAAGGAGCCGCAAAGAGGTTATTAAGGGATAAATAATCCCTCAATATAAATATCTCTCACTTATTTAAA,–,0.62,–
ACAGACGAAGGAGCCGCAAAGAGGTTATTAAGGGATGAATAATCACTCAATATAAATATCTCTCACTTATTTAAA,–,0.102,–
ACAGACGAAGGAGCCGCAAAGAGGTTATTAAGGGATGAATAATCCATCAATATAAATATCTCTCACTTATTTAAA,0.176,–,–
ACAGACGAAGGAGCCGCAAAGAGGTTATTAAGGGATGAATAATCCCTAAATATAAATATCTCTCACTTATTTAAA,–,0.386,–
ACAGACGAAGGAGCCGCAAAGAGGTTATTAAGGGATGAATAATCCCTCAATATAAATATCTCTCACTTATTTAAA,0.814,0.754,0.737

Sequence,cleaved RNA product abundance [1],cleaved RNA product abundance [2],cleaved RNA product abundance [3]
ACAGACGAAGGAGCCGCAAAGAGGTTATTAAGGGATGAATAATCCGTCAATATAAATATCTCTCACTTATTTAAA,–,0.296,–
ACAGACGAAGGAGCCGCAAAGAGGTTATTAAGGTATGAATAATCCCTCAATATAAATATCTCTCACTTATTTAAA,–,0.1,–
ACAGACGAAGGAGCCGCAAAGAGGTTATTAAGTGATGAATAATCCCTCAATATAAATATCTCTCACTTATTTAAA,–,0.0848,–
ACAGACGAAGGAGCCGCAAAGAGGTTATTAATGGATGAATAATCCCTCAATATAAATATCTCTCACTTATTTAAA,0.13,0.0978,–
ACAGACGAAGGAGCCGCAAAGAGGTTATTTAGGGATGAATAATCCCTCAATATAAATATCTCTCACTTATTTAAA,–,0.527,–
ACAGACGAAGGAGCCGCAAAGATATTATTAAGGGATGAATAATCCCTCAATATAAATATCTCTCACTTATTTAAA,0.93,0.459,–
ACAGACGAAGGAGCCGCAAAGATGATATTAAGGGATGAATAATCCCTCAATATAAATATCTCTCACTTATTTAAA,0.664,0.676,–
ACAGACGAAGGAGCCGCAAAGATGCTATTAAGGGATGAATAATCCCTCAATATAAATATCTCTCACTTATTTAAA,–,0.848,–
ACAGACGAAGGAGCCGCAAAGATGTAATTAAGGGATGAATAATCCCTCAATATAAATATCTCTCACTTATTTAAA,–,0.427,–
ACAGACGAAGGAGCCGCAAAGATGTCATTAAGGGATGAATAATCCCTCAATATAAATATCTCTCACTTATTTAAA,–,0.205,–
ACAGACGAAGGAGCCGCAAAGATGTTAATAAGGGATGAATAATCCCTCAATATAAATATCTCTCACTTATTTAAA,0.237,0.311,–
ACAGACGAAGGAGCCGCAAAGATGTTATAAAGGGATGAATAATCCCTCAATATAAATATCTCTCACTTATTTAAA,0.259,0.441,–
ACAGACGAAGGAGCCGCAAAGATGTTATCAAGGGATGAATAATCCCTCAATATAAATATCTCTCACTTATTTAAA,0.239,0.328,–
ACAGACGAAGGAGCCGCAAAGATGTTATTAAAGGATGAATAATCCCTCAATATAAATATCTCTCACTTATTTAAA,–,0.129,–
ACAGACGAAGGAGCCGCAAAGATGTTATTAACGGATGAATAATCCCTCAATATAAATATCTCTCACTTATTTAAA,0.104,0.151,–
ACAGACGAAGGAGCCGCAAAGATGTTATTAAGAGATGAATAATCCCTCAATATAAATATCTCTCACTTATTTAAA,–,0.156,–
ACAGACGAAGGAGCCGCAAAGATGTTATTAAGCGATGAATAATCCCTCAATATAAATATCTCTCACTTATTTAAA,0.0873,0.11,–
ACAGACGAAGGAGCCGCAAAGATGTTATTAAGGAATGAATAATCCCTCAATATAAATATCTCTCACTTATTTAAA,0.102,0.145,–
ACAGACGAAGGAGCCGCAAAGATGTTATTAAGGCATGAATAATCCCTCAATATAAATATCTCTCACTTATTTAAA,0.108,0.104,–
ACAGACGAAGGAGCCGCAAAGATGTTATTAAGGGAAGAATAATCCCTCAATATAAATATCTCTCACTTATTTAAA,–,0.51,–

Sequence,cleaved RNA product abundance [1],cleaved RNA product abundance [2],cleaved RNA product abundance [3]
ACAGACGAAGGAGCCGCAAAGATGTTATTAAGGGATAAATAATCCCTCAATATAAATATCTCTCACTTATTTAAA,–,0.906,–
ACAGACGAAGGAGCCGCAAAGATGTTATTAAGGGATCAATAATCCCTCAATATAAATATCTCTCACTTATTTAAA,0.708,1.08,–
ACAGACGAAGGAGCCGCAAAGATGTTATTAAGGGATGAAAAATCCCTCAATATAAATATCTCTCACTTATTTAAA,0.583,0.733,–
ACAGACGAAGGAGCCGCAAAGATGTTATTAAGGGATGAATAAACCCTCAATATAAATATCTCTCACTTATTTAAA,–,0.275,–
ACAGACGAAGGAGCCGCAAAGATGTTATTAAGGGATGAATAATACCTCAATATAAATATCTCTCACTTATTTAAA,0.128,0.142,–
ACAGACGAAGGAGCCGCAAAGATGTTATTAAGGGATGAATAATCACTCAATATAAATATCTCTCACTTATTTAAA,–,0.181,–
ACAGACGAAGGAGCCGCAAAGATGTTATTAAGGGATGAATAATCCATCAATATAAATATCTCTCACTTATTTAAA,0.171,0.311,–
ACAGACGAAGGAGCCGCAAAGATGTTATTAAGGGATGAATAATCCCACAATATAAATATCTCTCACTTATTTAAA,0.227,0.248,–
ACAGACGAAGGAGCCGCAAAGATGTTATTAAGGGATGAATAATCCCTAAATATAAATATCTCTCACTTATTTAAA,–,1.11,–
ACAGACGAAGGAGCCGCAAAGATGTTATTAAGGGATGAATAATCCCTCAAAATAAATATCTCTCACTTATTTAAA,–,0.502,–
ACAGACGAAGGAGCCGCAAAGATGTTATTAAGGGATGAATAATCCCTCAACATAAATATCTCTCACTTATTTAAA,–,0.223,–
ACAGACGAAGGAGCCGCAAAGATGTTATTAAGGGATGAATAATCCCTCAATATAAATAACTCTCACTTATTTAAA,0.767,0.897,–
ACAGACGAAGGAGCCGCAAAGATGTTATTAAGGGATGAATAATCCCTCAATATAAATACCTCTCACTTATTTAAA,0.71,–,–
ACAGACGAAGGAGCCGCAAAGATGTTATTAAGGGATGAATAATCCCTCAATATAAATATCTCTCACTTATTTAAA,0.938,0.996,1.01
ACAGACGAAGGAGCCGCAAAGATGTTATTAAGGGATGAATAATCCCTCAATATACATATCTCTCACTTATTTAAA,–,0.483,–
ACAGACGAAGGAGCCGCAAAGATGTTATTAAGGGATGAATAATCCCTCAATATATATATCTCTCACTTATTTAAA,–,0.975,–
ACAGACGAAGGAGCCGCAAAGATGTTATTAAGGGATGAATAATCCCTCAATCTAAATATCTCTCACTTATTTAAA,–,0.0528,–
ACAGACGAAGGAGCCGCAAAGATGTTATTAAGGGATGAATAATCCCTCACTATAAATATCTCTCACTTATTTAAA,0.166,–,–
ACAGACGAAGGAGCCGCAAAGATGTTATTAAGGGATGAATAATCCCTCATTATAAATATCTCTCACTTATTTAAA,–,0.411,–
ACAGACGAAGGAGCCGCAAAGATGTTATTAAGGGATGAATAATCCCTCGATATAAATATCTCTCACTTATTTAAA,0.352,–,–
